The values that follow come from patent US6818221B2, “Adjuvants and processes to induce a specific type of immune response” (Baylor Research Institute, priority 2000, dated 2004).

For test [1], the system named is OVA-specific CD8+ T cells. Kind of test: Cytokines produced in CD8+ T-cell cultures (ELISA). The note with it: CD8+ OT-1 cells. The test is classed as in vivo, mice. On the procedure: (§1) Four days after injecting with OVA or OVA+LPS, 2.5×10^5 popliteal lymph node cells (footpad injections) or splenocytes (intraperitoneal injections) were plated in triplicate in 96-well flat bottomed plates (Costar, Cambridge, Mass.) in 200 μl of RPMI complete medium (GIBCO BRL, Grand Island, N.Y., US) supplemented with 5% fetal bovine serum (FBS), together with different concentrations (0-500 μg/mL of OVA, or OVA peptide (SIINFEKL, SEQ ID NO:1) (New England Peptide Incorporated, Fitchburg, Mass.). Proliferative responses were assessed after 72 hours of culture in a humidified atmosphere of 5% CO2 in air. Cultures were pulsed with 1.0 μCi [^3H] thymidine for 12 hours, and incorporation of the radionucleotide was measured by β-scintillation spectroscopy (Pulendran, B., et al. 1999. “Distinct dendritic cell subsets differentially regulate the class of immune response in vivo,” Proc Natl Acad Sci USA 96:1036-1041). For cytokine assays, aliquots of culture supernatants were removed after 72 hours, pooled, and assayed for the presence of IFNγ, IL-2, IL-4, IL-5, IL-10, and IL-13 by ELISA.
(§2) IFNγ, IL-2, IL-10, IL-4, IL-5, IL-6, IL-12, IL-13 and TNFα were quantified by ELISA kits from Pharmingen (San Diego, Calif.) using manufacturer's instructions dated 2000.
We next examined the cytokines produced in CD8+ T-cell cultures by ELISA.
In general terms: In an ELISA, binding on a coated surface is turned into a signal by an enzyme label.

Test [2] relates to OVA-specific CD4+ T cells. Description: Cytokine production by antigen-specific T-helper cells in restimulated cultures (ELISA). The test is classed as in vivo, mice. The settings on record: CD4+ OT-2 system; culture supernatants after 72 hours OVA restimulation. As to the method: as §1, §2
Cytokine production by antigen-specific T cells was measured by assaying the culture supernatants from the single cell suspensions of the draining lymph nodes described above for IL-2, IFNγ, IL-4, IL-10 and IL-5.

For test [3], the system named is OVA-specific CD4+ T cells. Kind of test: IL-13 production by antigen-specific T cells in restimulated cultures (ELISA). The test is classed as in vivo, B6.PL.THY1a (B6.PL) mice. The note with it: route not distinguished (intraperitoneally or subcutaneously). As to the method: B6.PL.THY1^a (B6.PL) mice reconstituted with OT-2 transgenic T cells were immunized with soluble OVA, E. coli LPS alone, P. gingivalis LPS alone, OVA+E. coli LPS, or OVA+P. gingivalis LPS, either subcutaneously in the footpad or intraperitoneally. Four days later, the draining popliteal lymph nodes (subcutaneous route), or spleens (intraperitoneal route) were removed, and single cell suspensions were restimulated with varying concentrations of OVA (0-500 μg/mL) for 72 hours, and pulsed with [^3H] for 12 hours. The cell populations were then assayed for IL-13 with ELISA. The data presented in FIG. 10 are representative of two independent experiments.
Four days after injecting with OVA or OVA+LPS, 2.5×10^5 popliteal lymph node cells (footpad injections) or splenocytes (intraperitoneal injections) were plated in triplicate in 96-well flat bottomed plates (Costar, Cambridge, Mass.) in 200 μl of RPMI complete medium (GIBCO BRL, Grand Island, N.Y., US) supplemented with 5% fetal bovine serum (FBS), together with different concentrations (0-500 μg/mL of OVA, or OVA peptide (SIINFEKL, SEQ ID NO:1) (New England Peptide Incorporated, Fitchburg, Mass.). Proliferative responses were assessed after 72 hours of culture in a humidified atmosphere of 5% CO2 in air. […]

In test [4] the test system is OVA-specific CD4+ T cells. Kind of test: Clonal expansion of OVA-specific CD4+ T cells in vivo (OT-2 adoptive transfer, flow cytometry). Also on record: species or system mice. The note with it: OVA with or without LPS adjuvant; footpad or intraperitoneal; Day 4. From the text:
OT-2 TCR transgenic mice (strain 426-6), generated by Dr. W. Heath (Walter & Eliza Hall Institute, Melbourne, Australia) and Dr. F. Carbone (Monash University, Melbourne, Australia) were obtained from Dr. J. Kapp (Emory University, Atlanta). OT-1 TCR transgenic mice were purchased from Jackson Laboratory (Bar Harbor, Me.). C57BL/6 mice, B6.PL.THY1^a (B6.PL) mice, and C3H/HeJ mice were purchased from Jackson Laboratory (Bar Harbor, Me.). C3H/HeN mice were purchased from Harlan Sprague Dawley (Indianapolis, Ind.). All mice were kept in microisolator cages in a specific-pathogen free facility. For adoptive transfers, age matched, male C57BL/6 or B6.PL.THY1^a recipients were given 2.5×10^6 of either OT-2 cells or OT-1 TCR transgenic T cells intravenously.
Reconstituted mice (3-5 per group) were injected either intraperitoneally, or in the footpad, with either 2 mg OVA in saline, 2 mg OVA+25 μg E. coli LPS, or 2 mg OVA+25 μg P. gingivalis LPS. Endotoxin activity in saline was measured by LAL QCL-1000 kit, and observed to be below the detection limit. […]
The reconstituted mice were injected with one of the following compositions: soluble endotoxin-free OVA, E. coli LPS alone, P. gingivalis LPS alone, OVA+E. coli LPS, or OVA+P. gingivalis LPS. […] The CD4+ OVA-specific T cell response in either the draining lymph nodes or in the spleen was monitored by flow cytometry (FIG. 2A).
Background: Flow cytometry measures light scatter and fluorescence of single cells or particles in a stream.

B1: OVA: Chicken OVALBUMIN (Sigma) in PBS, depleted of the endotoxin activity; model soluble protein antigen (protein, UniProt P01012 2-386, looked up)
Ovalbumin: GSIGAASMEFCFDVFKELKVHHANENIFYCPIAIMSALAMVYLGAKDSTRTQINKVVRFDKLPGFGDSIEAQCGTSVNVHSSLRDILNQITKPNDVYSFSLASRLYAEERYPILPEYLQCVKELYRGGLEPINFQTAADQARELINSWVESQTNGIIRNVLQPSSVDSQTAMVLVNAIVFKGLWEKAFKDEDTQAMPFRVTEQESKPVQMMYQIGLFRVASMASEKMKILELPFASGTMSMLVLLPDEVSGLEQLESIINFEKLTEWTSSNVMEERKIKVYLPRMKMEEKYNLTSVLMAMGITDVFSSSANLSGISSAESLKISQAVHAAHAEINEAGREVVGSAEAGVDAASVSEEFRADHPFLFCIKHIATNAVLFFGRCVSP
With B1, in test [1], the IFNγ production entry is “did not secrete significant levels”, the IL-2 production entry is listed as “did not secrete significant levels”, the IL-5 production entry is reported as “did not secrete significant levels” and the IL-10 production result is on record as “did not secrete significant levels”. Further, in test [2], the IFNγ production result is given as “little, if any”; the IL-2 production result was “little, if any”; the IL-4 production result is recorded as “little, if any”; the IL-5 production result is reported as “little, if any”. The IL-10 production result in test [2] was “little, if any”. Also, in test [3], the IL-13 production result is on record as “little, if any”. Further, the “clonal expansion of OVA-specific CD4+ T cells” value in test [4] is reported as “significant clonal expansion”.
